Laboratory results reported in patent publication US20150239977A1 (MIT, published 2015).

T1: CD20 protein on the surface of B-cells (Raji cells, a Burkitt's lymphoma cell line) (human, UniProt P11836 1-297)
T1 construct: also called CD20 antigen; B lymphocyte antigen CD20
T1 sequence: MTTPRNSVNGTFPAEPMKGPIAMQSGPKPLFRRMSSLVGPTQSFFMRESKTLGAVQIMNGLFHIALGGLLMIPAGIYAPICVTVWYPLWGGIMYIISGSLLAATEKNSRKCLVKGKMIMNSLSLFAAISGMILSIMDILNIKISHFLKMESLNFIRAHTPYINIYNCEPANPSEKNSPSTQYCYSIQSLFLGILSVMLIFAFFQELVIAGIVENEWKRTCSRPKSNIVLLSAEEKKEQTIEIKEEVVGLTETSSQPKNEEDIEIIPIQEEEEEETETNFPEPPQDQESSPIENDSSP


Biological target: T1, CD20 protein on the surface of B-cells …
Assay: indirect immunofluorescence on Raji cells, flow cytometry
Protocol: Binding affinity of an antibody to its target antigen can be an indicator of antibody efficacy. An indirect immunofluorescence cell-based binding assay was conducted to determine the dissociation constant (KD) between select CD20-binding proteins of the invention and the targeted antigen (CD20 protein on the surface of B-Cells). […] Because of this, the raw data was fitted to the following equation: […]

| Binder | binding result |
| --- | --- |
| CD20-binding protein with M1/M2/M3/M4/M7 modifications (V3Q, A9S, I10S, V59S, L153D in the rituximab light chain) (antibody, human IgG1, kappa, V domains shown, Heavy chain unmodified; whole IgG as for the wild type; also called M1/2/3/4/7) VH: QVQLQQPGAELVKPGASVKMSCKASGYTFTSYNMHWVKQTPGRGLEWIGAIYPGNGDTSYNQKFKGKATLTADKSSSTAYMQLSSLTSEDSAVYYCARSTYYGGDWYFNVWGAGTTVTVSA VL: QIQLSQSPSSLSASPGEKVTMTCRASSSVSYIHWFQQKPGSSPKPWIYATSNLASGVPSRFSGSGSGTSYSLTISRVEAEDAATYYCQQWTSNPPTFGGGTKLEIKR | binds |
| CD20-binding protein with the M9 modification (Y101S in the rituximab Fab heavy chain, in the CDR) (antibody, human IgG1, kappa, V domains shown, Whole IgG as for the wild type; also called M9 (Y101S); CDR mutation) VH: QVQLQQPGAELVKPGASVKMSCKASGYTFTSYNMHWVKQTPGRGLEWIGAIYPGNGDTSYNQKFKGKATLTADKSSSTAYMQLSSLTSEDSAVYYCARSTSYGGDWYFNVWGAGTTVTVSA VL: QIVLSQSPAILSASPGEKVTMTCRASSSVSYIHWFQQKPGSSPKPWIYATSNLASGVPVRFSGSGSGTSYSLTISRVEAEDAATYYCQQWTSNPPTFGGGTKLEIKR | no binding |
